In PMC4341462, “Human RNASET2 derivatives as potential anti-angiogenic agents: actin binding sequence identification and characterization” (Oncoscience, 2014):

Experiments:
[1] = biological target: T1, Actin from rabbit muscle (Sigma A2522) (rabbit, UniProt P68135 1-377); test: SPR; BIAcore 3000; actin amine-coupled to a CM5 chip; hRNASET2, trT2-50, trT2-50m or peptides injected at 5 concentrations, 10 μl/min, 25°C, HBS (10 mM Hepes, 150 mM NaCl, 3 mM EDTA, 0.005% Polysorbate 20); global fit with BIAevaluation 3.2; conditions: both partners purified
[2] = biological target: T1, Actin from rabbit muscle (Sigma A2522); test: ELISA; solid-phase actin binding assay: 500 ng actin coated per well (MaxiSorp, carbonate-bicarbonate pH 9.5), blocked with 3% BSA; trT2-50, trT2-50m or peptides added in 1:2 dilutions from 500 ng/well in 100 μl TBS, 1 h 37°C; detected with rabbit anti-trT2-50 and goat anti-rabbit IgG-HRP, OD 655 nm; affinity by double reciprocal plot; conditions: both partners purified

B1: trT2-50m (truncated hRNASET2 identical to trT2-50 but missing E120-V141) (domain or fragment)
chain: EGCNRSWPFNLEEIKDLLPEMRAYWPDVIHSFPNRSRFWKHEWEKHGTCAAQVDALNSQKKYFGRSLELYRADFKDALARVYGVIPKIQCLPPSQDEEVQTIGQIELCLTKQDQQLQNCTEPGEQPSPKQEVWLANGAAESRGLRVCEDGPVFYPPPKKTKH
Kd [1]: 500 nM
koff [1]: 0.00969 s⁻¹
kon [1]: 19400 M⁻¹ s⁻¹
Kd [2]: 34.5 nM
